Experimental data reported in paper PMC13225219.

Target: GST-Drak (435-532) (Drosophila melanogaster) (UniProt Q0KHT7)
Experiment: pull-down; GST-Drak on glutathione agarose; 100 µl of 0.2-10 µM Filamin fragment, 20 min on ice in 20 mM Tris-HCl pH 7.5, 100 mM NaCl, 1 mM DTT; washed with PBS; stain-free SDS-PAGE, Filamin to Drak band ratio

Chain of UniProt Q0KHT7 (Q0KHT7 435-532): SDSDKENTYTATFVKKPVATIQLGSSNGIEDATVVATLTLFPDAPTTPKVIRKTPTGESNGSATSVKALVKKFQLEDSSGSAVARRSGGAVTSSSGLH

fold bound against the wild-type Filamin fragment: 10 fold
Substance: Filamin-open (five-domain Drosophila Filamin fragment Cher15-19openMSR) (domain or fragment)
